Experimental data from the supplement of paper PMC10219994.
± gives the standard deviation of the averaged measurements.

B1: library; a variant is named by its letters at N, in order (parent)
chain: GAGACCGCAACTGAAAAGTTGTGGNNNNNATAGTGAGTCGCTGCCTGCAAAGACACAACT

Variants of: B1
Experiment: ligation selection enrichment (abundance after / before one-round selection) (fold); higher = more template-directed ligation activity
Settings: with T7Psub CACGGAUGCUAAUACGACUCACUAUA; MgCl2 25 mM; 42 °C; 4 h; pH 8.5
Method: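 Lib-N5 ligase ribozyme library: five randomized core nucleotides (including the GGA motif of N8-1) within the fixed N8-1 ribozyme flanks, transcribed by T7 RNA polymerase with a 5'-triphosphate. The library (0.75 uM) was reacted with substrate T7Psub (6 uM) in 50 mM EPPS pH 8.5 with 25 mM MgCl2 at 42 C for 4 h. Ligated products were PAGE-purified, reverse transcribed and MiSeq sequenced; enrichment = abundance after selection / abundance before selection, with two independent replicates. The full transcript is built from the printed template flanks.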

| Variant | ligation selection enrichment |
| --- | --- |
| CCCGG | 0.327 ± 0.049 |
| CCCGT | 0.207 ± 0.059 |
| AACCA | 0.1955 ± 0.00066 |
| CTTTT | 0.63109 ± 0.00025 |
| ACTGA | 0.286 ± 0.048 |
| GCCTT | 0.162 ± 0.02 |
| TGAAG | 0.271 ± 0.03 |
| GGGCT | 0.765 ± 0.27 |
| ACACC | 0.132 ± 0.0051 |
| ACACG | 0.497 ± 0.035 |
| TCAAG | 0.718 ± 0.12 |
| TCAAA | 0.317 ± 0.039 |
| TTGCC | 0.231 ± 0.025 |
| AGCCT | 0.307 ± 0.093 |
| AGCCC | 0.167 ± 0.05 |
| AGCCA | 0.161 ± 0.018 |
| GTCCG | 0.529 ± 0.022 |
| GTCCT | 0.266 ± 0.14 |
| AGGCG | 0.527 ± 0.12 |
| AGGCC | 0.21 ± 0.013 |
| CACCT | 0.334 ± 0.14 |
| CACCA | 0.112 ± 0.018 |
| GTTCG | 2.43 ± 0.41 |
| GTTCC | 0.33 ± 0.069 |

| Variant | ligation selection enrichment |
| --- | --- |
| GTTCA | 0.545 ± 0.029 |
| TAAAT | 0.784 ± 0.063 |
| TAAAA | 0.145 ± 0.025 |
| TCACC | 0.159 ± 0.0071 |
| GTCGG | 0.443 ± 0.054 |
| GTCGT | 0.297 ± 0.13 |
| CCGCG | 0.499 ± 0.059 |
| CCGCA | 0.206 ± 0.0029 |
| CCGCT | 0.4 ± 0.15 |
| TTGGC | 0.191 ± 0.053 |
| AAGAG | 0.632 ± 0.085 |
| CGGTT | 0.202 ± 0.042 |
| GTTTC | 0.169 ± 0.068 |
| GCAGA | 0.363 ± 0.026 |
| TCCTC | 0.107 ± 0.011 |
| TCCTA | 0.147 ± 0.063 |
| CCCTG | 0.425 ± 0.013 |
| GGCAT | 5.15 ± 1.1 |
| GGCAG | 0.55 ± 0.028 |
| CTGAC | 1.07 ± 0.085 |
| AAGGA | 0.431 ± 0.013 |
| AAGGC | 0.146 ± 0.015 |
| TTATC | 0.152 ± 0.02 |
| TTATA | 0.465 ± 0.12 |

| Variant | ligation selection enrichment |
| --- | --- |
| TGAGC | 0.156 ± 0.035 |
| TGAGT | 0.221 ± 0.024 |
| CATAA | 0.159 ± 0.023 |
| CATAT | 1.2 ± 0.084 |
| CATAC | 0.183 ± 0.029 |
| TGCTA | 0.17 ± 0.012 |
| CAACG | 0.449 ± 0.066 |
| TCGAA | 0.975 ± 0.19 |
| TGCGC | 0.217 ± 0.02 |
| CCCCG | 0.49 ± 0.0033 |
| CCCCC | 0.199 ± 0.004 |
| CTGCG | 0.5 ± 0.22 |
| CTGCC | 0.138 ± 0.05 |
| CTGCA | 0.147 ± 0.0049 |
| GTGCT | 0.813 ± 0.23 |
| AAGCT | 0.56 ± 0.29 |
| AAGCG | 1.09 ± 0.27 |
| AAGCA | 0.236 ± 0.065 |
| GTTGT | 0.353 ± 0.054 |
| GTTGC | 0.769 ± 0.034 |
| AATCC | 0.358 ± 0.014 |
| AATCT | 0.451 ± 0.12 |
| GCAAT | 4.77 ± 1.7 |
| GCAAC | 0.281 ± 0.015 |

| Variant | ligation selection enrichment |
| --- | --- |
| ACGTG | 0.17 ± 0.0072 |
| GCGGG | 0.201 ± 0.0056 |
| GCGGT | 0.186 ± 0.11 |
| AAATT | 0.446 ± 0.12 |
| ACCGA | 0.379 ± 0.054 |
| TATCA | 0.404 ± 0.031 |
| TTTCG | 0.632 ± 0.068 |
| TTTCT | 0.249 ± 0.052 |
| ACTCA | 0.217 ± 0.031 |
| ACTCT | 0.248 ± 0.12 |
| ACTCC | 0.321 ± 0.011 |
| ACTCG | 0.535 ± 0.046 |
| AAAGA | 0.256 ± 0.0097 |
| AAAGT | 0.147 ± 0.088 |
| AAAGC | 0.199 ± 0.038 |
| CAGCT | 0.542 ± 0.24 |
| CAGCA | 0.206 ± 0.024 |
| ACCTA | 0.18 ± 0.017 |
| ACGGC | 0.122 ± 0.01 |
| ACGGT | 0.169 ± 0.025 |
| GGAGG | 0.371 ± 0.084 |
| GGAGT | 0.165 ± 0.0095 |
| AGTGT | 0.133 ± 0.035 |
| TACGT | 0.169 ± 0.044 |

| Variant | ligation selection enrichment |
| --- | --- |
| TACGG | 0.379 ± 0.026 |
| GGTGC | 0.226 ± 0.03 |
| GGTGT | 0.181 ± 0.16 |
| ATCTT | 0.102 ± 0.083 |
| CTGTA | 0.136 ± 0.0097 |
| CTCTC | 0.116 ± 0.0082 |
| CTCTA | 0.182 ± 0.031 |
| CTCTG | 0.298 ± 0.058 |
| ACCCC | 0.194 ± 0.0053 |
| CTCAT | 0.104 ± 0.013 |
| TGGGG | 0.228 ± 0.049 |
| ATGGT | 0.181 ± 0.092 |
| ATGGA | 0.662 ± 0.029 |
| ATGGC | 0.128 ± 0.0069 |
| ATGGG | 0.265 ± 0.05 |
| TAACC | 0.173 ± 0.011 |
| CGTAT | 4.81 ± 0.52 |
| CTGGT | 0.18 ± 0.078 |
| CTGGC | 0.135 ± 0.021 |
| CCAGT | 0.107 ± 0.041 |
| CCAGC | 0.108 ± 0.022 |
| CCAGA | 0.297 ± 0.02 |
| TCTTT | 0.193 ± 0.18 |
| TCCGA | 0.205 ± 0.034 |

| Variant | ligation selection enrichment |
| --- | --- |
| TCCGT | 0.123 ± 0.096 |
| ATCAT | 0.391 ± 0.082 |
| ATCAG | 0.722 ± 0.0083 |
| CAAAA | 0.131 ± 0.011 |
| CAAAG | 0.162 ± 0.03 |
| CAAAC | 0.135 ± 0.028 |
| ATAGA | 0.543 ± 0.062 |
| ATAGG | 0.3 ± 0.012 |
| TTAAC | 0.52 ± 0.0073 |
| TTAAG | 0.69 ± 0.15 |
| TTAAT | 7.9 ± 1.6 |
| ACTTC | 0.192 ± 0.049 |
| ACTTA | 0.172 ± 0.0078 |
| CGTCT | 0.522 ± 0.15 |
| CGTCA | 0.569 ± 0.038 |
| AGATG | 0.602 ± 0.065 |
| ATAAC | 0.204 ± 0.038 |
| ATAAG | 0.373 ± 0.099 |
| CTACA | 0.114 ± 0.0039 |
| CTACG | 0.429 ± 0.14 |
| CGTTA | 0.263 ± 0.01 |
| GGTCA | 0.9187 ± 0.002 |
| GGTCT | 0.471 ± 0.12 |
| GGTCG | 2.83 ± 0.25 |

| Variant | ligation selection enrichment |
| --- | --- |
| ACAGA | 0.307 ± 0.022 |
| ACAGC | 0.135 ± 0.011 |
| AACTA | 0.165 ± 0.013 |
| AACTC | 0.0963 ± 0.052 |
| GCGTT | 0.288 ± 0.12 |
| GAGGT | 0.143 ± 0.025 |
| GAGGG | 0.345 ± 0.011 |
| TATGT | 0.135 ± 0.031 |
| TGGCA | 0.252 ± 0.025 |
| TGGCC | 0.286 ± 0.041 |
| AGGTA | 0.41 ± 0.019 |
| AGGTC | 0.196 ± 0.011 |
| GAGAC | 0.765 ± 0.031 |
| GAGAT | 11.7 ± 2.6 |
| GAGAG | 0.663 ± 0.061 |
| TTAGG | 0.306 ± 0.061 |
| TTAGC | 0.139 ± 0.035 |
| TGACC | 0.183 ± 0.0057 |
| TGACA | 0.19 ± 0.052 |
| TGACG | 0.49 ± 0.13 |
| TCGGC | 0.232 ± 0.01 |
| TCGGA | 0.233 ± 0.022 |
| GTATG | 1.4 ± 0.24 |
